Article PMC10113246
Where a chain is given by its changes, count along the chain named.

Key:
Experiment in all cases: SPR
Parameters in all cases: unit not given here
Details in all cases: SPR DBD-TD: 25 mM HEPES pH 7.5, 200 mM NaCl, 0.5 mM TCEP, 0.005% Tween-20, SPR DBD: 10 mM HEPES pH 7.5, 150 mM NaCl, 0.2 mM TCEP
[1] = biological target: T1, p63 DBD-TD K193E K232E (UniProt Q9H3D4)
T1 sequence: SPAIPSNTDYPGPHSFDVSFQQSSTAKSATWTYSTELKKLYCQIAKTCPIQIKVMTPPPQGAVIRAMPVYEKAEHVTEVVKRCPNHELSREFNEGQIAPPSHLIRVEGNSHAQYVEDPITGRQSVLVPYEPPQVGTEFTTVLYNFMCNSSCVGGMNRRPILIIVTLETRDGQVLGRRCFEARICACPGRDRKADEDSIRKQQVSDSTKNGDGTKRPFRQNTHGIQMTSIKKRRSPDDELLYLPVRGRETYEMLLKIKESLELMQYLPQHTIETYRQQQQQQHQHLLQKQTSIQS

[2] = biological target: T2, p63 DBD-TD R227Q R266Q (UniProt Q9H3D4)
T2 sequence: T1 sequence with E71K, R105Q

[3] = biological target: T3, p63 DBD-TD R280H R319H (UniProt Q9H3D4)
T3 sequence: T1 sequence with E71K, R158H

[4] = biological target: T4, p63 DBD-TD R280S R319S (UniProt Q9H3D4)
T4 sequence: T1 sequence with E71K, R158S

[5] = biological target: T5, p63 DBD-TD R298Q R337Q (UniProt Q9H3D4)
T5 sequence: T1 sequence with E71K, R176Q

[6] = biological target: T6, p63 DBD-TD R304W R343W (UniProt Q9H3D4)
T6 sequence: T1 sequence with E71K, R182W

[7] = biological target: T7, p63 DBD-TD WT (UniProt Q9H3D4)
T7 sequence: T1 sequence with E71K

[8] = biological target: T8, p63 DBD H208Y H247Y (UniProt Q9H3D4)
T8 sequence: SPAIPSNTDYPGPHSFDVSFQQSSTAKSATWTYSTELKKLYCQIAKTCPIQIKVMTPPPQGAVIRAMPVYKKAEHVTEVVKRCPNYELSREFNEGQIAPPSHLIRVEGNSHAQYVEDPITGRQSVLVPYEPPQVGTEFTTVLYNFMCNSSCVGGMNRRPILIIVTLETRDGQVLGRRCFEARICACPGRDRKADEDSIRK

[9] = biological target: T9, p63 DBD I172A I211A (UniProt Q9H3D4)
T9 sequence: T8 sequence with I50A, Y86H

[10] = biological target: T10, p63 DBD R204W R243W (UniProt Q9H3D4)
T10 sequence: T8 sequence with R82W, Y86H

[11] = biological target: T11, p63 DBD R227Q R266Q (UniProt Q9H3D4)
T11 sequence: T8 sequence with Y86H, R105Q

[12] = biological target: T12, p63 DBD R279H R318H (UniProt Q9H3D4)
T12 sequence: T8 sequence with Y86H, R157H

[13] = biological target: T13, p63 DBD R280S R319S (UniProt Q9H3D4)
T13 sequence: T8 sequence with Y86H, R158S

[14] = biological target: T14, p63 DBD R298Q R337Q (UniProt Q9H3D4)
T14 sequence: T8 sequence with Y86H, R176Q

[15] = biological target: T15, p63 DBD R304W R343W (UniProt Q9H3D4)
T15 sequence: T8 sequence with Y86H, R182W

[16] = biological target: T16, p63 DBD V202M V241M (UniProt Q9H3D4)
T16 sequence: T8 sequence with V80M, Y86H

[17] = biological target: T17, p63 DBD WT (UniProt Q9H3D4)
T17 sequence: T8 sequence with Y86H

[18] = biological target: T18, p63 DBD Y192C Y231C (UniProt Q9H3D4)
T18 sequence: T8 sequence with Y70C, Y86H

Row | Sequence | Kd [1] | Kd [2] | Kd [3] | Kd [4] | Kd [5] | Kd [6] | Kd [7] | Kd [8] | Kd [9] | Kd [10] | Kd [11] | Kd [12] | Kd [13] | Kd [14] | Kd [15] | Kd [16] | Kd [17] | Kd [18]
1 | TTTTTTTTTTTGAACATGTCCCAACATGTTG / CAACATGTTGGGACATGTTC [p21 response element (SPR)] | 9920 | 515 | 1120 | 11800 | 435 | 27000 | 67.9 | – | – | – | – | – | – | – | – | – | – | –
2 | TTTTTTTTTTTAAACATGTTTAAACATGTTT / AAACATGTTTAAACATGTTT [20 bp p63 consensus sequence (SPR)] | – | – | – | – | – | – | – | 2060 | 33.7 | 510 | 120 | 202 | 351000 | 90.8 | 220 | 83300 | 30.4 | 1240
